Assay results from publication PMC4204856, “Application of a Novel Alkali-Tolerant Thermostable DyP-Type Peroxidase from Saccharomonospora viridis DSM 43017 in Biobleaching of Eucalyptus Kraft Pulp” (PLoS ONE, 2014).

Columns and labels:
[1] = substrate: CCN(CC)c1ccc(C(=C2C=CC(=[N+](CC)CC)C=C2)c2ccccc2)cc1; assay: purified protein; format: biochemical, Saccharomonospora viridis; settings: H2O2 co-substrate (0.1 mM in all tests), 50 mM phosphate pH 7.0, standard assay 60°C, temperature of kinetics not stated
[2] = substrate: Nc1c(S(=O)(=O)O)cc(Nc2cccc(S(=O)(=O)CCOS(=O)(=O)O)c2)c2c1C(=O)c1ccccc1C2=O; assay: purified protein; format: biochemical, Saccharomonospora viridis; settings: H2O2 co-substrate (0.1 mM in all tests), 50 mM phosphate pH 7.0, standard assay 60°C, temperature of kinetics not stated

B1: SviDyP (Saccharomonospora viridis) (protein)
chain: MKGRRFGRRAFLATGAAALGGAAALGGRELFTGDGGADGRDRPDRGDIGRATVDFHGERQAGVATPAQAFATFVAFDLLDGVDREALIRWMRVWTDDIERLTRGAPALTDTEPELALLPARLTVTVGFGPGFLAAAGREELRPSWLAPLPEFPIDRLREEFSGGDLVAQVCADDEVTVAHAVRVLTKQARSFARPRWVQRGFRNTPGAVPEGATMRNLMGQLDGTRNLRPGPDDRLIWISDGPEWLRGGTGMVVRRIAMNLDTWDELDRPARELVIGRRLDNGAPLTGRHEHDEPDLEAVDERGLSVIPMFAHIRRARSDNPDERFLRRSYNYDDPPEPGELSNSGLVFVTFQADIEAQFTPIQRRLAELDSLNDWTTPIGSAVFAVPRGCRPGEYLGQPLLEA
notes: Ni-NTA and Sephadex G-75; tag removal not mentioned; ~45 kDa on SDS-PAGE
With B1 the Km [1] was 58.87 ± 4.7 µM and the Km [2] was 210.2 ± 16.5 µM.
